Measurements published in patent US20030158133.

Assays:
[1] = tested on: Flag-tagged rtPDE3B containing its full ORF
[2] = tested on: Flag-tagged rtPDE3B-137 (full ORF) S421A
[3] = tested on: Flag-tagged rtPDE3B-137 (full ORF) S421D

PK-A (cAMP-dependent protein kinase) was tested, and the “stimulation of cGMP hydrolytic activity by PK-A (0.03 µM cGMP, with or without PK-A and ATP)” value [1] was “caused a much greater stimulation of activity in S421D than in S421A or the wild-type rtPDE3B”, the “stimulation of cGMP hydrolytic activity by PK-A (0.03 µM cGMP, with or without PK-A and ATP)” value [2] was “caused a much greater stimulation of activity in S421D than in S421A or the wild-type rtPDE3B” and the “stimulation of cGMP hydrolytic activity by PK-A (0.03 µM cGMP, with or without PK-A and ATP)” value [3] was “caused a much greater stimulation of activity in S421D than in S421A or the wild-type rtPDE3B”.
